# According to paper PMC7642358 (Nature Communications, 2020):
# Residue numbers refer to the chain shown, from its start.
# B1: 57 (VHH)
# VHH: QVQLVESGGGLVQAGGSLRLSCAASGFPVEHDHMHWYRQAPGKEREWVAAIVSQGAYTVYADSVKGRFTISRDNAKNTVYLQMNSLKPEDTAVYYCNVKDWGRAGARYDYWGQGTQVTVS
# B2: 53 (VHH)
# VHH: QVQLVESGGGLVQAGGSLRLSCAASGFPVYATVMHWYRQAPGKEREWVAAIYSTGMWTLYADSVKGRFTISRDNAKNTVYLQMNSLKPEDTAVYYCNVKDEGYDYYYYDYWGQGTQVTVS
# B3: 62 (VHH)
# VHH: QVQLVESGGGLVQAGGSLRLSCAASGFPVEQEHMYWYRQASGKEREWVAAIVSEGAYTAYADSVKGRFTISRDNAKNTVYLQMNSLKPEDTAVYYCNVKDWGGYQWYYDYWGQGTQVTVS
# B4: 64 (VHH)
# VHH: QVQLVESGGGLVQAGGSLRLSCAASGFPVYNRYMLWYRQAPGKEREWVAAITSYGYHTTYADSVKGRFTISRDNAKNTVYLQMNSLKPEDTAVYYCNVKDYGQHQQVYDYWGQGTQVTVS
# B5: 71 (VHH)
# VHH: QVQLVESGGGSVQAGGSLRLSCAASGNIQHIKYLGWFRQAPGREREGVAALMTRYGQTYYADSVKGRFTVSLDNAKNTVYLQMNSLKPEDTALYYCAAAHYGDNFPLAYQAYLYWGQGTQVTVS
# B6: 56 (VHH)
# VHH: QVQLVESGGGLVQAGGSLRLSCAASGFPVEMWSMEWYRQAPGKEREWVAAIMSFGYQTWYADSVKGRFTISRDNAKNTVYLQMNSLKPEDTAVYYCNVKDAGNSKALYDYWGQGTQVTVS
# B7: 51 (VHH)
# VHH: QVQLVESGGGLVQAGGSLRLSCAASGFPVKETWMHWYRQAPGKEREWVAAITSFGYKTYYADSVKGRFTISRDNAKNTVYLQMNSLKPEDTAVYYCNVKDAGDVTHQYDYWGQGTQVTVS
# B8: 45 (VHH)
# VHH: QVQLVESGGGLVQAGGSLRLSCAASGFPVAGTWMEWYRQAPGKEREWVAAITSYGYRTYYADSVKGRFTISRDNAKNTVYLQMNSLKPEDTAVYYCNVKDEGKSSQVYDYWGQGTQVTVS
# B9: 66 (VHH)
# VHH: B8 VHH with V29E, A30V, G31N, K103S, S104Q, Q106W, V107A
# B10: 58 (VHH)
# VHH: B8 VHH with A30D, G31A, T32A, E101M, G102D, K103R, S104W, S105R, Q106T, V107T
# B11: 61 (VHH)
# VHH: B8 VHH with A30Q, G31H, T32E, E101T, K103T, S104Y, S105Q, Q106A, V107W
# B12: 52 (VHH)
# VHH: B8 VHH with A30N, G31Y, T32N, Y54W, R57K, K103M, S104W, S105Q, Q106H, V107Y
# B13: 54 (VHH)
# VHH: B8 VHH with A30W, G31N, Y56F, R57K, K103N, S105Q, Q106S, V107H
# B14: 68 (VHH)
# VHH: QVQLVESGGGSVQAGGSLRLSCAASGTITNIGYLGWFRQAPGKEREGVAALKTYDGYTYYADSVKGRFTVSLDNAKNTVYLQMNSLKPEDTALYYCAAARHGRDEPLSYMYYSYWGQGTQVTVS
# B15: 73 (VHH)
# VHH: B14 VHH with T27K, T29Y, N30Q, K52M, Y54T, D104E, E105R, S108H, M110W
# B16: 63 (VHH)
# VHH: QVQLVESGGGLVQAGGSLRLSCAASGFPVNAEIMFWYRQAPGKEREWVAAIKSAGTTTLYADSVKGRFTISRDNAKNTVYLQMNSLKPEDTAVYYCNVKDYGAQAHYYDYWGQGTQVTVS
# B17: 47 (VHH)
# VHH: QVQLVESGGGLVQAGGSLRLSCAASGFPVVWAHMHWYRQAPGKEREWVAAITSEGAHTIYADSVKGRFTISRDNAKNTVYLQMNSLKPEDTAVYYCNVKDWGTYSTYYDYWGQGTQVTVS
# B18: 67 (VHH)
# VHH: B17 VHH with V30M, H35A, T52V, E54A, H57Y, I59H, S105N, T106S
# B19: 49 (VHH)
# VHH: B17 VHH with V30H, W31Y, A32T, T52A, E54S, H57Y, I59V, S105N
# B20: 50 (VHH)
# VHH: B3 VHH with E30Q, Q31Y, Y35H, S41P, A59H, G103W, Y104L, Q105A, W106Q
# B21: 48 (VHH)
# VHH: QVQLVESGGGLVQAGGSLRLSCAASGFPVAHWWMEWYRQAPGKEREWVAAIFSEGNWTHYADSVKGRFTISRDNAKNTVYLQMNSLKPEDTAVYYCNVKDTGATQFAYDYWGQGTQVTVS
# B22: 46 (VHH)
# VHH: QVQLVESGGGLVQAGGSLRLSCAASGFPVNYTIMFWYRKAPGKEREWVAAIKSHGATTLYADSVKGRFTISRDNAKNTVYLQMNSLKPEDTAVYYCNVKDVGNDQKSYDYWGQGTQVTVS
# B23: 69 (VHH)
# VHH: QVQLVESGGGSVQAGGSLRLSCAASGYISEISYLGWFRQAPGKEREGVAALITGWGHTYYADSVKGRFTVSLDNAKNTVYLQMNSLKPEDTALYYCAAAQTGAWYPLETYIYHYWGQGTQVTVS
# B24: 44 (VHH)
# VHH: QVQLVESGGGLVQAGGSLRLSCAASGFPVERKHMLWYRQSPGKEREWVAAIVSYGNYTTYADSVKGRFTISRDNAKNTVYLQMNSLKPEDTAVYYCNVKDHGFNTVLYDYWGQGTQVTVS
# B25: 60 (VHH)
# VHH: QVQLVESGGGLVQAGGSLRLSCAASGFPVVAWQMTWYRQAPGKEREWVAAIRSFGVSTHYADSVKGRFTISRDNAKNTVYLQMNSLKPEDTAVYYCNVKDWGYEYEGYDYWGQGTQVTVS
# Molecular target: SARS-CoV-2 spike receptor-binding domain (2019-nCoV RBD-SD1, residues 319–566) (SARS-CoV-2, UniProt P0DTC2)
row,Binder,binding result
1,B1,binds
2,B2,binds
3,B3,binds
4,B4,binds
5,B5,binds
6,B6,binds
7,B7,binds
8,B8,binds
9,B9,binds
10,B10,binds
11,B11,binds
12,B12,binds
13,B13,binds
14,B14,binds
15,B15,binds
16,B16,binds
17,B17,binds
18,B18,binds
19,B19,binds
20,B20,binds
21,B21,binds
22,B22,binds
23,B23,binds
24,B24,binds
25,B25,binds
